Results as given in patent US20050154189A1 (MAXYGEN, published 2005).

Legend:
Soluble CD28-Ig [1] = molecular target: T1, Soluble CD28-Ig (human, UniProt P10747 19-152, biotin-conjugated (NHS-biotin) in the labelled-ligand FACS assays); experiment: two-colour FACS profile on transfected cells; score of preference for CD28-Ig over CTLA-4-Ig vs WT hB7-1
T1 construct: extracellular domain; Bought from R&D Systems; also called sCD28-Ig; CD28-Ig Fc; not shown: Fc portion of human IgG1

Soluble CTLA-4-Ig [2] = molecular target: T2, Soluble CTLA-4-Ig (human, UniProt P16410 36-161, FITC-conjugated in the two-colour FACS assays; unlabelled and detected with FITC goat anti-human IgG in the concentration-dependent assay); experiment: FACS of transfected cells, Round 1 clones
T2 construct: extracellular domain; Bought from R&D Systems; also called sCTLA-4-Ig; CTLA-4-Ig Fc; not shown: Fc portion of human IgG1

human CD28 receptor = human CD28 receptor (human, UniProt P10747 19-220); experiment: cell-based or functional assay
Soluble CD28-Ig [3] = molecular target: T1, Soluble CD28-Ig; experiment: receptor binding assay, data not shown
Soluble CTLA-4-Ig [4] = molecular target: T2, Soluble CTLA-4-Ig; experiment: receptor binding assay, data not shown

T2 sequence (P16410 36-161): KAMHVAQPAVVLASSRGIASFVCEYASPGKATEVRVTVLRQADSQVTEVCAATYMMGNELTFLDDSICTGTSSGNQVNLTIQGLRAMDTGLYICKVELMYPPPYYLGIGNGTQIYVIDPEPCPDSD

Binding Score (Soluble CD28-Ig [1]) | Binder | also measured
2 | Round 2 CD28D11-1 (ligand) ITPKSVTKRVKETVMLSCDYNTSTEELTSLRIYWQKDSKMVLAILPGKVQVWPEYKNRTITDMNDNPRIVILALRLSDSGTYTCVVQKNENGSFRREHLTSVTLSIRADFPVPSITDIGHPAPNVKRIRCSASGDFPEPRLAWMEDGEELNAVNTTVDQDLDTELYSVSSELDFNVTNNHSIVCLIKYGELSVSQIFPWSKPKQEPPIDQLPFWVIILVSGALVLTAVVLYCLACRHVARWKRTRRNEETVGTERLSPIYLGSAQSSG | –
1 | Round 2 CD28H6-6 (ligand) ITPKSVTKRVKETVMLSCDYSTSTEELTSLRIYWQKDSKMVLAILPGKVQVWPEYKNRTITDMNDNPRIVILALRLSDSGTYTCVIQKPVLKGAYKLEHLASVRLMIRADFPVPTINDLGNPSPNIRRLICSGFPRPHLYWLENGEELNATNTTVSQDPGTELYMISSELDFNVTNNHSIVCLIKYGELSVSQIFPWSKPKQEPPIDQLPFWVIIPVSGALVLTAVVLYCLACRHVARWKRTRRNEETVGTERLSPIYLGSAQSSG | –
1 | Round 2 CD28D2-3 (ligand) ITPKSVTKRVKETVMLSCDYNTSTEELTSLRIYWQKDSKMVLAILPGKVQVWPEYKNRTITDMNDNPRIVIQALRLSDSGTYTCVIQKPVLKGAYKLEHLASVRLMIRADFPVPTDLGNPSPNIRRLICSTSGGFPRPHLYWLENGEELNATNTTVSQDPGTELYMISSELDFNVTNNHSIVCLIKYGELSVSQIFPWSKPKQEPPIDQLPFWVIIPVSGALVLTAVVLYCLACRHVARWKRTRRNEETVGTERLSPIYLGSAQSSG | –
2 | Round 2 CD28D12-5 (ligand) ITPKSVTKRVKETVMLSCDYSTSTEELTSLRIYWQKDSKMVLAILPGKVQVWPEYKNRTITDMNDNPRIVILALRLSDSGTYTCVIQKPVLKGAYKLEHLASVRLMIRADFPVPSITDIGHPAPNVKRIRCSASGDFPEPRLAWMEDGEELNAVNTTVLDTELYSVSSELDFNVTNNHSIVCLIKYGELSVSQIFPWSKPKQEPPIDQLPFWVIIPVSGALVLTAVVLYCLACRHVARWKRTRRNEETVGTERLSPIYLGSAQPSG | –
1 | Round 2 CD28F10-2 (ligand) ITPKSVTKRVKETVMLSCDYNTSTEELTSLRIYWQKDSKMVLAILPGKVQVWPEYKNRTITDMNDNPRIVILALRLSDSGTYTCVIQKPDLKGAYKLEHLTSVRLMIRADFPVPSITDIGHPAPNVKRIRCSASGDFPEPRLAWMEDGEELNAVNTTVDQDLDTELYSVSSELDFNVTNNHSIVCLIKYGELSVSQIFPWSKPKQEPPIDQLPFWVIIPVSGALVLTAVVLYCLACRHVARWKRTRRNEETVGTERLSPIYLGSAQSSG | –
1 | Round 2 CD28F12-5* (ligand) ITPKSVTKRVKETVMLSCDYNTSTEELTSLRIYWQKDSKMVLAILPGKVQVWPEYKNRTITDMNDNPRIVILALRLSDSGTYTCVIQKPDLKGAYKLEHLASVRLMIRADFPVPSITDIGHPAPNVKRIRCSASGDFPEPRLAWMEDGEELNAVNTTVDQDLDTELYSVSSELDFNVTNNHSIVCLIKYGELSVSQIFPWSKPKQEPPIDQLPFWVIIPVSGALVLTAVVLYCLACRHVARWKRTRRNEETVGTERLSPIYLGSAQSSG | –
1 | Round 2 CD28G1-9 (ligand) ITPKSVTKRVKETVMLSCDYNTSTEELTSLRIYWQKDSKMVLAILPGKVQVWPEYKNRTITDMNDNPRIVILALRLSDSGTYTCVIQKPVLKGAYKLEHLTSVRLMIRADFPVPSITDIGHPAPNVKRIRCSASGGFPEPRLAWMEDGEELNAVNTTVDQDLDTELYSVSSELDFNVTNNHSIVCLIKYGELSVSQIFPWSKPKQEPPIDQLPFWVIIPVSGALVLTAVVLYCLACRHVARWKRTRRNEETVGTERLSPIYLGSAQSSG | –
1 | Round 1 CD28BP-84 (ligand, also called R1clone 84; Clone 84) GISQVTKSVKEMAALSCDYNISIDELARMRIYWQKDQQMVLSIISGQVEVWPEYKNRTFPDIINNLSLMILALRLSDKGTYTCVVQKNENGSFRREHLTSVTLSIRADSPVPSITDIGHPAPNVKRIRCSASGGFPEPRLAWMEDGEELNAVNTTVDQDLDTELYSVSSELDFNVTNNHSIVCLIKYGELSVSQIFPWSKPKQEPPIDQLPFWVIIPVSGALVLTAVVLYCLACRHVARWKRTRRNEETVGTERLSPIYLGSAQSSG | binding result (Soluble CTLA-4-Ig [2]): binds
1 | Round 1 CD28BP-118 (ligand, also called R1clone 118; Clone 118) GISQVTKSVKEMAALSCDYNISIDELARMRIYWQKDQQMVLSIISGQVEVWPEYKNRTFPDIINNLSLMILALRLSDKGTYTCVVQKNENGSFRREHLTSVTLSIRADFPVPSITDIGHPAPNVKRIRCSASGDFPEPRLAWMEDGEELNAVNTTVDQDLDTELYSVSSELDFNVTNNHSIVCLIKYGELSVSQIFPWSKPKQEPPIDQLPFWVIIPVSGALVLTAVVLYCLACRHVARWKRTRRNEETVGTERLSPIYLGSAQSSG | binding result (Soluble CTLA-4-Ig [2]): binds
0 | Round 2 CD28F11-8 (ligand) ITPKSVTKRVKETVMLSCDYNTSTEELTSLRIYWQKDSKMVLAILPGKVQVWPEYKNRTITDMNDNPRIVILALRLSDSGTYTCVIQKPVLKGAYKLEHLTSVRLMIRADFPVPTINDLGNPSPNIRRLICSTSGGFPRPHLYWLENGEELNATNTTLSQDPETKLYMISSELDFNMTSNLCLVKYGDLTVSQTFYWQESKPTPSANQHLTWTIIIPVSAFGISVIIAVILTCLTCRNAAIRRQRRENEVEMQSCSQSP | –
2 | Round 2 CD28BP-15 (ligand, Full-length clone on transiently or stably transfected 293 cells; The end 303 is the end of the entry as counted; also called R2 CD28BP-15; clone 15) ITPKSVTKRVKETVMLSCDYNTSTEELTSLRIYWQKDSKMVLAILPGKVQVWPEYKNRTITDMNDNPRIVILALRPSDSGTYTCVIQKPVLKGAYKLEHLASVRLMIRADFPVPTINDLGNPSPNIRRLICSTSGGFPRPHLYWLENGEELNATNTTVSQDPGTELYMISSELDFNVTNNHSIVCLIKYGELSVSQIFPWSKPKQEPPIDQLPFWVIIPVSGALVLTAVVLYCLACRHVARWKRTRRNEETVGTERLSPIYLGSAQSSG | T cell proliferation (3H-thymidine incorporation) of purified human T cells with anti-CD3 mAbs (human CD28 receptor): ~10 fold
0 | Round 2 CD28B4-5* (ligand) SGITPKSVTKRVKETVMLSCDYNTSTEELTSLRIYWQKDSKMVLAILPGKVQVWPEYKNRTITDMNDNPRIVILALRLSDKGTYTCVVQKPDLKGAYKLEHLASVRLMIRADFPVPSITDIGHPAPNVKRIRCSASGGFPEPRLAWMEDGEELNAVNTTVDQDLDTELYSVSSELDFNVTNNHSIVCLIKYGELSVSQIFPWSKPKQEPPIDQLPFWVIIPVSGALVLTAVVLYCLACRHVARWKRTRRNEETVGTERLSPIYLGSAQSSG | –
– | Baboon B7-1 (ligand, Wild-type parental gene expressed on transfected 293 cells) VIHVTKEVKEVATLSCGHNVSVEELAQTRIYWQKEKKMVLTMMSGDMNIWPEYKNRTIFDITNNLSIVILALRPSDEGTYECVVLKYEKDAFKREHLAEVMLSVKADFPTPSITDFEIPPSNIRRIICSTSGGFPEPHLFWLENGEELNAINTTVSQDPGTELYTVSSKLDFNMTTNHSFVCLIKYGHLRVNQTFNWNTPKQEHFPDNLLPSWAITLISVNGIFVICCLTYCFAPRCRERRRNETLRRESVRPV | binding result (Soluble CD28-Ig [3]): binds; binding result (Soluble CTLA-4-Ig [4]): binds
– | Orangutan B7-1 (ligand, Wild-type parental gene expressed on transfected 293 cells) VIHVTKEVKEVATLSCGHNVSVEELAQTRIYWQKEKKMVLTMMSGDMNIWPEYKNRTIFDITNNLSIVILALRPSDEGTYECVVLKYEKDAFKREHLAEVTLSVKADFPTPSISDFEIPTSNIRRMICSTSGGFPEPHLSWLENGEELNAISTTVSQDPETELYAVSSKLDFNMTTNHSFMCLIKYGHLRVNQTFNWNTPKQEHFPDNLLPSWAITLISVNGIFVICCLTYCFAPRCRERRSNERLRRESVRPV | binding result (Soluble CD28-Ig [3]): binds; binding result (Soluble CTLA-4-Ig [4]): binds
0 | Round 2 CD28A2-5 (ligand) ITPKSVTKRVKETVMLSCDYNTSTEELTSLRIYWQKDSKMVLAILPGKVQVWPEYKNRTITDMNDNPRIVILALRLSDSGTYTCVIQKPDLKGAYKLEHLASVRLMIRADFPVPSITDIGHPAPNVKRIRCSASGGFPEPRLAWMEDGEELNAVNTTVDQDLDTELYSVSSELDFNMTSNHSFLCLVKYGDLTVSQTFYWQESKPTPSANQHLTWTIIIPVSAFGISVIIAVILTCLTCRNAAIRRQRRENEGKCKVLSVSIGTKLKFNR | –
